The numbers were not newly measured in article PMC9092467, which cites them from elsewhere.

Some results are limits rather than exact numbers.

Data set [1] deals with His32 (UniProt position 32, FGDVNHTNGNV). Briefly: NMR.
For data set [2], the target named is His83 (UniProt position 83, FNEPAHTLYGQ). Briefly: NMR.
Setting [3] is: apoprotein (no haem or haem analogue bound).
The mark [4] stands for this setting: holoprotein with gallium protoporphyrin IX, Ga(PPIX), bound.

By pKa is commonly meant the negative logarithm of the acid dissociation constant. As for “Haem acquisition system protein A (hemophore HasA) (Serratia marcescens)”, the pKa in data set [1] (setting [3]) is on record as 7.3; in data set [1] (setting [4]), under 4.8; in data set [2] (setting [3]), 5.6; in data set [2] (setting [4]) it was 9.7.
